Data on five molecules can be found in patent US20240368259A1 (ONENA MEDICINES S L, published 2024).

B5: SCBT anti-lefty antibody (Santa Cruz Biotechnology, catalog number sc-365845, mAb D6) (antibody, mouse IgG1, kappa)
heavy: QVQLQQSGAELVRPGASVKLSCKALGYTFADYEMHWVRQTPVHGLEWTGSIHPGSGGTAYDQRFKGKATLTADKSSSTAYMELSSLTSEDSAVYYCTFYDLDYWGQGTTLTVSSAKTTPPSVYPLAPGSAAQTNSMVTLGCLVKGYFPEPVTVTWNSGSLSSGVHTFPAVLQSDLYTLSSSVTVPSSTWPSETVTCNVAHPASSTKVDKKIVPRDCGCKPCICTVPEVSSVFIFPPKPKDVLTITLTPKVTCVVVDISKDDPEVQFSWFVDDVEVHTAQTQPREEQFNSTFRSVSELPIMHQDWLNGKEFKCRVNSAAFPAPIEKTISKTKGRPKAPQVYTIPPPKEQMAKDKVSLTCMITDFFPEDITVEWQWNGQPAENYKNTQPIMDTDGSYFVYSKLNVQKSNWEAGNTFTCSVLHEGLHNHHTEKSLSHSPGK
light: DILMTQAAPSISVTPGESVSISCRSSESLLHSNGNTYLYWFLQRPGQSPQLLIYRKSNLASGVPDRFSGSGSGTAFTLRISRVEAEDVGVYYCMQQLEYPLTFGGGTKLELKRADAAPTVSIFPPSSEQLTSGGASVVCFLNNFYPKDINVKWKIDGSERQNGVLNSWTDQDSKDSTYSMSSTLTLTKDEYERHNSYTCEATHKTSTSPIVKSFNRNEC
notes: The ELISA protocol prints the catalog number as sc-36584, the proliferation protocols as sc-365845; also called SCBT antibody; SCBT Ab

In assay [1] the target is T1, LRP6 (UniProt O88572 20-1613, limits assumed).
T1 construct: whole, on cells
Put plainly: proximity ligation assay in fibroblasts.

The target of assay [2] is T2, BMPR2 (BMP receptor, in mouse fibroblasts and mouse mammary cells) (mouse, UniProt O35607 27-1038).
T2 construct: whole, on cells; For the co-IP it came from cell lysate; also called BMP Type II receptor
T2 sequence (looked up): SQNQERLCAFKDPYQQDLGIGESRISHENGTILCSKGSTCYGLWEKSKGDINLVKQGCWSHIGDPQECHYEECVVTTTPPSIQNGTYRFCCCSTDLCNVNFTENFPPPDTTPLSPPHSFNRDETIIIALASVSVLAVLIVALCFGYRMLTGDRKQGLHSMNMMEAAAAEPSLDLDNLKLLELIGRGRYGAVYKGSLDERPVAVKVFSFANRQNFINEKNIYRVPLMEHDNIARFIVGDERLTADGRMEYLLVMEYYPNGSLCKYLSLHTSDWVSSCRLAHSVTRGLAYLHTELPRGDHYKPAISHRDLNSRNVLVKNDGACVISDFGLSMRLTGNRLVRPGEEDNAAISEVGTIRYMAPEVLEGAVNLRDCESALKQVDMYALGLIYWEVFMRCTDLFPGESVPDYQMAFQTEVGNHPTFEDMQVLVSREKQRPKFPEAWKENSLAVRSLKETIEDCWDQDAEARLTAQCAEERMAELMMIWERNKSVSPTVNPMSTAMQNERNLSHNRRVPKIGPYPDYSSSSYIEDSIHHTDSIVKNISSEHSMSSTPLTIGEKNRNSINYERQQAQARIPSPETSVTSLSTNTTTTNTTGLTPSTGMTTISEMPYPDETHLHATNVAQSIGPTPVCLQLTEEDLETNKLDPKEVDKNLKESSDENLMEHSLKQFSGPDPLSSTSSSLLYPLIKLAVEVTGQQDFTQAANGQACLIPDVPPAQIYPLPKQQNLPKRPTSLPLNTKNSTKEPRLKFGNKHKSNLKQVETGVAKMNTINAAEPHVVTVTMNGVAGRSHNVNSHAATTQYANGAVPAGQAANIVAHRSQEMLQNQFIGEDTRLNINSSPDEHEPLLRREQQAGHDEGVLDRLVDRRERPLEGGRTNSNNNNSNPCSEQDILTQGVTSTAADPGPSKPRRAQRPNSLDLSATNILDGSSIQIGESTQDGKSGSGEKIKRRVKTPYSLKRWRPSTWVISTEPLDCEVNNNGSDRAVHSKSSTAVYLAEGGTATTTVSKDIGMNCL
Nature of the assay: proximity ligation assay in fibroblasts.

In assay [3] the target is B5. Nature of the assay: competition ELISA: the peptide is added to the antibody on coated LEFTY proteins. (An ELISA detects its analyte on a solid surface through an enzyme-linked reagent.)
Assay [4] has as its target T3, BMPR2 on human breast cancer cells (PDX tumor cells, MDA-MB-231) (human, UniProt Q13873 27-1038).
T3 construct: whole, on cells
T3 sequence (looked up): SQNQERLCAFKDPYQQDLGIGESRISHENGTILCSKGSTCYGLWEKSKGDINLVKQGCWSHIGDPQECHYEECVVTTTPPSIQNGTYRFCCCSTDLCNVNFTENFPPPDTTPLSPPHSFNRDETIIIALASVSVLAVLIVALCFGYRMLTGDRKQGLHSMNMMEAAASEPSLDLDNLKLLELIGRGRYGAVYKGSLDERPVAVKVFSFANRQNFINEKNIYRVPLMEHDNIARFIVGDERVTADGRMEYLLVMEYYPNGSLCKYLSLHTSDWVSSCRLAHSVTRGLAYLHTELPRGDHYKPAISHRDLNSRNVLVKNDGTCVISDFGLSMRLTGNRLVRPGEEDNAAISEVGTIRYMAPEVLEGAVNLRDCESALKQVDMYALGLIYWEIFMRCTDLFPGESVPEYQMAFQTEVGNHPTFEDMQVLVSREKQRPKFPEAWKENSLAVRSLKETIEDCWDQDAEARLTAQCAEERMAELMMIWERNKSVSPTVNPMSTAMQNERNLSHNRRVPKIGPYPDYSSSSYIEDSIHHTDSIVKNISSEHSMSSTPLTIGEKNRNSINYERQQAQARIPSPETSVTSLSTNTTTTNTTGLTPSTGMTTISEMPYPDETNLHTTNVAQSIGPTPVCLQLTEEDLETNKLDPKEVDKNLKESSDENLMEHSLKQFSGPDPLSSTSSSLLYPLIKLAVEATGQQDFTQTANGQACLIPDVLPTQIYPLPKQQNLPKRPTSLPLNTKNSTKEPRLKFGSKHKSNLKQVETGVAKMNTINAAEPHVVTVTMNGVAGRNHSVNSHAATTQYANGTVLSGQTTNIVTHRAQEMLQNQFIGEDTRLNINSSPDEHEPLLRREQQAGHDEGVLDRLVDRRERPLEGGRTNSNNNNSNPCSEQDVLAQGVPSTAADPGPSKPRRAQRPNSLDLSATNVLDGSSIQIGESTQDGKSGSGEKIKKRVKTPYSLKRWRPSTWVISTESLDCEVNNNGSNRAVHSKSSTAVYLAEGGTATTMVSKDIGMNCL
Put plainly: proximity ligation assay on sorted PDX cells.

The target in assay [5] is T4, 1189 IMM (human LEFTY1-Rabbit Fc fusion protein) (human).
T4 construct: also called Lefty IMM; Lefty Imm
T4 chain: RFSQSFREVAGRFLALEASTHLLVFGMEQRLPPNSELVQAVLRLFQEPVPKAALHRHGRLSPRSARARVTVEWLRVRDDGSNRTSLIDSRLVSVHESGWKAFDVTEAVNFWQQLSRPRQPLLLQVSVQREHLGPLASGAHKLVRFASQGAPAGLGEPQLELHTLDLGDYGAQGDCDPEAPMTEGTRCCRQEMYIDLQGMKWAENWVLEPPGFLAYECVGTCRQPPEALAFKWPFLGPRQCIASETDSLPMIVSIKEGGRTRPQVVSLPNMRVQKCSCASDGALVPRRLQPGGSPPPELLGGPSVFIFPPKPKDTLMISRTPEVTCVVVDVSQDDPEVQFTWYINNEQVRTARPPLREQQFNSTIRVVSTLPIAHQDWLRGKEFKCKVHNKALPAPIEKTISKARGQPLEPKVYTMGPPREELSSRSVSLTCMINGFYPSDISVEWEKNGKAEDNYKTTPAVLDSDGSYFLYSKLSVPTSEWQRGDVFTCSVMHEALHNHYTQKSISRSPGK
Nature of the assay: ELISA, plate coated with 5 ug/ml protein, 5 ug/ml primary antibody, absorbance at 450 nm.

The target of assay [6] is T5, 1189 SCR1 (human LEFTY1-human Fc fusion protein) (human).
T5 construct: also called Lefty SCR; Lefty Scr
T5 chain: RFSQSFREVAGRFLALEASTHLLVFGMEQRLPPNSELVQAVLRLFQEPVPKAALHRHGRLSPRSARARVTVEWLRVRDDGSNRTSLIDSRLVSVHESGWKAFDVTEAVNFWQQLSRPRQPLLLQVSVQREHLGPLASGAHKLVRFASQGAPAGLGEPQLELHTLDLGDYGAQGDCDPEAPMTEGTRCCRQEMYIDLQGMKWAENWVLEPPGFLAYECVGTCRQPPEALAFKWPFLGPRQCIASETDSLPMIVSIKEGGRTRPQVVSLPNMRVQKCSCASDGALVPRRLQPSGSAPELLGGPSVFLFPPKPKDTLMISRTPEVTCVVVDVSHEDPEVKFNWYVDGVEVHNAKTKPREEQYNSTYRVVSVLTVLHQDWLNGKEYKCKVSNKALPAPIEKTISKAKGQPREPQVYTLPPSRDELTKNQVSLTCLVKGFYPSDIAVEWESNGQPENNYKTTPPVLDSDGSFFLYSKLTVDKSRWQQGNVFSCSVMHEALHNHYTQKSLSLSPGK
The description is as above.

Assay [7] addresses T6, recombinant human LEFTY2 protein (R&D Systems, catalog number 746-LF-025) (human, UniProt O00292 78-366, limits assumed).
T6 construct: also called Lefty R&D; rhLefty2 protein
T6 sequence (looked up): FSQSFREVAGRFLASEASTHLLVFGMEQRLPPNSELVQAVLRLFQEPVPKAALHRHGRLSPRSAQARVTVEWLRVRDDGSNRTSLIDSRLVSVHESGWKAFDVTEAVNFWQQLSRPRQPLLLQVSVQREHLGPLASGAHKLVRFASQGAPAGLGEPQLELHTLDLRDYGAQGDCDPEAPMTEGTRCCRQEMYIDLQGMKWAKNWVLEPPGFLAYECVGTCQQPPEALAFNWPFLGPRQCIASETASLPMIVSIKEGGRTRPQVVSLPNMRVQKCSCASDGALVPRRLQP
The assay is described as above.

T1 sequence (O88572 20-1613 limits assumed): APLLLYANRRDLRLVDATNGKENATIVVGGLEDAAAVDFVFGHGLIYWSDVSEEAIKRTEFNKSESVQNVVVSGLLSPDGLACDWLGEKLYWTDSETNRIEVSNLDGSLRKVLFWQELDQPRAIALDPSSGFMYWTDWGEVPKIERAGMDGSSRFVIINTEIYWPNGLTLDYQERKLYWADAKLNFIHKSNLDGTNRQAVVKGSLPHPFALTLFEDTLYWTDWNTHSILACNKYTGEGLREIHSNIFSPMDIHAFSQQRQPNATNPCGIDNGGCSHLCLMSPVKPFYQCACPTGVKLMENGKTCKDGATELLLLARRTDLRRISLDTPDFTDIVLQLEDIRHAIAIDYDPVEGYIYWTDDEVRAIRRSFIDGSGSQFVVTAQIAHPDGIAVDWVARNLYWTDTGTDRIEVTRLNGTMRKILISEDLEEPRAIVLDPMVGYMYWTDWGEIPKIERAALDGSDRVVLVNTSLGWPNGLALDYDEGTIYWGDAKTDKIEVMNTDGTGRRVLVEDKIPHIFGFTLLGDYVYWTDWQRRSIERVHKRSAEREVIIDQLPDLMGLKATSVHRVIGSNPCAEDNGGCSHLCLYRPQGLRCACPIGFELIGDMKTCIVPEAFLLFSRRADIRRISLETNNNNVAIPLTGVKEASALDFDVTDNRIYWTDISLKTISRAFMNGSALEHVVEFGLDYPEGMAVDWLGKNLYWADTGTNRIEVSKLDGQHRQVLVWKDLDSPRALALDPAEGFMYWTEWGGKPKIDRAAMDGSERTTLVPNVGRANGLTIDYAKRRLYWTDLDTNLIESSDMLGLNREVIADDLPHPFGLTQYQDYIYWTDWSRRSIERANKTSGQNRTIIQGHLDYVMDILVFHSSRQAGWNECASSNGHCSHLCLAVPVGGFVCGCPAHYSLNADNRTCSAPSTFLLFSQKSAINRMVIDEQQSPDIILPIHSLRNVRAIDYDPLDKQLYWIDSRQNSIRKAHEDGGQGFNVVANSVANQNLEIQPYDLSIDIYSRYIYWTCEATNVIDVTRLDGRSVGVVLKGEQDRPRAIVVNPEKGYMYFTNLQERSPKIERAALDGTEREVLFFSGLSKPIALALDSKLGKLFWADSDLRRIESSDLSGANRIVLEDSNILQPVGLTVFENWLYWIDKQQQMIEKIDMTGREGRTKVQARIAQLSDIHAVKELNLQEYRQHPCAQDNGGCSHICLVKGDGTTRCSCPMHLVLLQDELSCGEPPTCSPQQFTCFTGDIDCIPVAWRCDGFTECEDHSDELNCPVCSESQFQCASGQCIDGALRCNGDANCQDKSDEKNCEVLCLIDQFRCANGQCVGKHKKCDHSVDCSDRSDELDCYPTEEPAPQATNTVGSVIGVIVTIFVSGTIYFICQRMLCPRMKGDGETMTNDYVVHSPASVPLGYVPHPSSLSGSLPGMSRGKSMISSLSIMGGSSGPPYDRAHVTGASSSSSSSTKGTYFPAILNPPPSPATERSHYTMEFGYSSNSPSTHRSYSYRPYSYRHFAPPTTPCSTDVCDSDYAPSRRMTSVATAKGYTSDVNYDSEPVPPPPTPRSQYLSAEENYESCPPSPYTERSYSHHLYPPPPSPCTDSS

B1: LEFTY1 (recombinant mouse Lefty1 protein, R&D Systems, catalog number 994-LF) (ligand, UniProt Q64280 78-368, looked up)
chain: FSQNLREVAGRFLVSETSTHLLVFGMEQRLPPNSELVQAVLRLFQEPVPRTALRRQKRLSPHSARARVTIEWLRFRDDGSNRTALIDSRLVSIHESGWKAFDVTEAVNFWQQLSRPRQPLLLQVSVQREHLGPGTWSSHKLVRFAAQGTPDGKGQGEPQLELHTLDLKDYGAQGNCDPEAPVTEGTRCCRQEMYLDLQGMKWAENWILEPPGFLTYECVGSCLQLPESLTSRWPFLGPRQCVASEMTSLPMIVSVKEGGRTRPQVVSLPNMRVQTCSCASDGALIPRRLQP
notes: Added to cells at 200 ng/ml (co-IP, SMAD assays)
As to B1, the binding result is listed as “no binding” in assay [1] and “binds” in assay [2].

B2: Lefty1 peptide PMIVSVKEGGRTRPQVVSLPNMRVQT (peptide)
peptide: PMIVSVKEGGRTRPQVVSLPNMRVQT
On to B2, for which the binding result in assay [3] is listed as “binds”.

B3: BMP7 in human breast cancer PDX cells (ligand, UniProt P18075 293-431, looked up)
chain: STGSKQRSQNRSKTPKNQEALRMANVAENSSSDQRQACKKHELYVSFRDLGWQDWIIAPEGYAAYYCEGECAFPLNSYMNATNHAIVQTLVHFINPETVPKPCCAPTQLNAISVLYFDDSSNVILKKYRNMVVRACGCH
Take B3: in assay [4], the binding result is listed as “binds”.

B4: BMP7 (R&D Systems 5666-BP) (ligand, mouse, UniProt P23359 292-430, looked up)
chain: STGGKQRSQNRSKTPKNQEALRMASVAENSSSDQRQACKKHELYVSFRDLGWQDWIIAPEGYAAYYCEGECAFPLNSYMNATNHAIVQTLVHFINPDTVPKPCCAPTQLNAISVLYFDDSSNVILKKYRNMVVRACGCH
Turning to B4, in assay [2], the binding result was “binds”. With B5, the binding result in assay [5], in assay [6] and in assay [7] was “binds” in each case.
